Legend:
[1] = target: human Integrin Associated Protein (IAP) (human) (UniProt Q08722); test: cell ELISA, CF1-hIAP-55-8 minus CF1-pCOS1, antibody at 3 µg/ml
[2] = target: human Integrin Associated Protein (IAP) (human) (UniProt Q08722); test: cell ELISA on PLP-fixed CF-1 cells expressing human IAP, antibody at 3 µg/ml
[3] = target: human Integrin Associated Protein (IAP) (human) (UniProt Q08722); test: cell-based or functional assay
[4] = target: human Integrin Associated Protein (IAP) (human) (UniProt Q08722); test: cell ELISA, CF1-hIAP-55-8 minus CF1-pCOS1, hybridoma culture supernatant
[5] = target: human Integrin Associated Protein (IAP) (human) (UniProt Q08722); test: cell ELISA on PLP-fixed CF-1 cells expressing human IAP, hybridoma culture supernatant

Chain of UniProt Q08722 (Q08722 19-323): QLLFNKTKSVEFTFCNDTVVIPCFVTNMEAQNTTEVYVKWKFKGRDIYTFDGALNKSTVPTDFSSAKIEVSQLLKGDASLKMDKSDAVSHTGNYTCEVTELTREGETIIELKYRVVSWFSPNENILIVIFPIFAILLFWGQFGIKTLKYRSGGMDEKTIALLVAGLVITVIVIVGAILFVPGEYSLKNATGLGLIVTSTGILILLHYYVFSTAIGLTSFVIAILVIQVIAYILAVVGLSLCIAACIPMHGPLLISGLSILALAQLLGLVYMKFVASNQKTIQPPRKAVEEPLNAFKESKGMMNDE

Specific binding (absorbance, CF1-pCOS1 subtracted) [1] [absorbance] | absorbance in ELISA (raw data, CF1-hIAP-55-8) [2] [absorbance] | percentage (%) of apoptosis of Jurkat cells, PI staining, flow cytometry (8G2 control supernatant 7.43%) [3] [%] | Specific binding (absorbance, CF1-pCOS1 subtracted) [4] [absorbance] | absorbance in ELISA (raw data, CF1-hIAP-55-8) [5] [absorbance] | Molecule
0.296 | 0.456 |  |  |  | human IAP-recognizing anti-CD47 antibody (PharMingen)
 |  | 9.84 | 0.379 | 0.568 | monoclonal antibody of hybridoma 7D2-E3 (antibody, from another filing, IgG2a) scFv: QVQLQQSGPELVKPGASVKMSCKASGYTFANHVIHWVKQKPGQGLEWIGYIYPYNDGTKYNEKFKDKATLTSDKSSTTAYMDLSSLASEDSAVYYCARGGYYTYDDWGQGTTLTVSSGGGGSGGGGSGGGGSDVVMTQSPLSLPVSLGDQASISCRSSQSLVHSNGKTYLHWYLQKPGQSPKLLIYKVSNRFSGVPDRFSGSGSVTDFTLMISRVEAEDLGVYFCSQSTHVPYTFGGGTKLEIKDYKDDDDK

— patent US7531643
